In article PMC12056058 (Nature Communications, 2025):
Where a chain is given by its changes, count along the chain named. Names and notes keep the numbering of the source.

T1: Fis1 (mitochondrial fission protein 1), cytosolic domain (Homo sapiens, UniProt Q9Y3D6, T34D)
T1 construct: cytosolic domain, C-terminal HRV 3C site and His6 tag (cut off), codon optimized, E. coli BL21(DE3); first 30 residues disordered in mutant crystals
T1 sequence (Q9Y3D6 1-123 T34D): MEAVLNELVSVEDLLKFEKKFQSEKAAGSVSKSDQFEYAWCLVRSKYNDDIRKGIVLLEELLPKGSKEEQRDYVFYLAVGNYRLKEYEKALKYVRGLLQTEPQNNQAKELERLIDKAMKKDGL

B1: Thr34Asp Fis1, cytosolic domain, tag-free (domain or fragment, human)
chain: T1 sequence (Q9Y3D6 1-123 T34D)
notes: Mitochondrial fission protein 1 (Fis1), human, cytosolic domain; also called T34D; phosphorylation mimic-mutant; source: E. coli BL21 (DE3), purified (Ni-NTA, HRV 3C cleavage, reverse Ni-NTA); not shown: His6, C-terminal, cleaved
B2: Thr34Glu Fis1, cytosolic domain, tag-free (domain or fragment, human)
chain: T1 sequence (Q9Y3D6 1-123 T34D) with D34E
notes: Mitochondrial fission protein 1 (Fis1), human, cytosolic domain; also called phosphorylation mimic-mutant; source: E. coli BL21 (DE3), purified (Ni-NTA, HRV 3C cleavage, reverse Ni-NTA); not shown: His6, C-terminal, cleaved
B3: Tyr38Glu Fis1, cytosolic domain, tag-free (domain or fragment, human)
chain: T1 sequence (Q9Y3D6 1-123 T34D) with D34T, Y38E
notes: Mitochondrial fission protein 1 (Fis1), human, cytosolic domain; also called Y38E; phosphorylation mimic-mutant; source: E. coli BL21 (DE3), purified (Ni-NTA, HRV 3C cleavage, reverse Ni-NTA); not shown: His6, C-terminal, cleaved

How the values were obtained:
[1] = target: T1, Fis1 (mitochondrial fission protein 1), cytosolic domain; assay: CPM thiol fluorescence competition; assay type: binding; details: read-out: apparent IC50
[2] = target: the molecule itself; assay: crystal structure; tag-free Fis1 protein/mutant at 8 mg/ml, sitting drop; data at 100 K, SSRL BL12-2; molecular replacement with PDB 1NZN

Molecule	IC50 [1]	binding result [2]
CN(CCCN1c2ccccc2Sc2ccccc21)C(=O)CCl [SP11, N-(3-(10H-phenothiazin-10-yl)propyl)-2-chloro-N-methylacetamide]	9.4 µM	–
C=CC(=O)N(C)CCCN1c2ccccc2Sc2ccccc21 [SP22, N-(3-(10H-phenothiazin-10-yl)propyl)-N-methylacrylamide]	15.4 µM	–
B1	–	binds
B2	–	binds
B3	–	binds
